# According to the supplement of paper PMC11780869:
# System: Bacillus subtilis
# Test: cleaved RNA product abundance (RNA/gDNA barcode ratio) relative to median wild-type variant (ratio to wild type); higher = more accumulation of the downstream cleavage product
# Outline: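 In LB at 37°C, B. subtilis cultures went from OD600 0.0003 to 0.3. Their chromosomes held barcoded reporter mRNAs, truncated aprE or tetM, with RNase Y cleavage-site windows mutagenized via oligos at a 9% error rate. Cleaved RNA, chosen by gel, was reverse transcribed and barcode-sequenced alongside genomic DNA barcodes with UMI collapsing, giving a per-construct RNA:gDNA ratio scaled to the median construct with the unmutated site. This scaled ratio is termed cleaved product abundance.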
# [1] = experiment (reporter, strain, medium): exp 4a: truncated aprE reporter, strain BJT201 with 2% xylose (RNase J1 expressed), cleavage site: cggR-gapA (positions -7 to +36 mutated)
# [2] = experiment (reporter, strain, medium): exp 2b: truncated aprE reporter, strain BJT200, cleavage site: cggR-gapA (positions -7 to +36 mutated)
# [3] = experiment (reporter, strain, medium): exp 6: tetM reporter, strain 168, cleavage site: cggR-gapA (positions -7 to +36 mutated)
# [4] = experiment (reporter, strain, medium): exp 8a: truncated aprE reporter, strain BJT201 with 2% xylose (RNase J1 expressed), cleavage site: glnRA (positions -5 to +31 mutated)
sequence,measurement,setting,value
ACAGACGAAGGAGCCGCAAAGAAGTTATTAAGGGATTAATAATCCCTCAATATAAACATCTCTCACTTATTTAAA,cleaved RNA product abundance,[1],0.803
ACAGACGAAGGAGCCGCAAAGAAGTTATTAGGTGATGAATAATCCCTCAATATAAATATCTCTCACTTATTTAAA,cleaved RNA product abundance,[1],0.331
ACAGACGAAGGAGCCGCAAAGAAGTTATTAAGGGATGAATAATCCCTCAATATAAATTTCTCTCACTTATTTAAA,cleaved RNA product abundance,[2],0.72
same,cleaved RNA product abundance,[1],0.761
same,cleaved RNA product abundance,[3],0.391
ACAGACGAAGGAGCCGCAAAGAAGTTATTAAGGGATGAATAAACCCTCATTATAAATATCTCTCACTTATTTAAA,cleaved RNA product abundance,[2],0.13
same,cleaved RNA product abundance,[1],0.19
ACAGACGAAGGAGCCGCAAAGAAGTTATTAAGGGATTAATAATCCCTCAAGATAAATATCTCTCACTTATTTAAA,cleaved RNA product abundance,[2],0.203
same,cleaved RNA product abundance,[1],0.254
CGACATGTCCCGCTTCTTTCATTATTCCGTTAGCAACTGTTTTGCTATATACATTTACGTTTTAAGAGGAGGAAT,cleaved RNA product abundance,[4],2.39
CGACATGTCCCGCTTCTTTCATTAATCCGTTAGCAAGTGTTTTGCTATATCCATTTACCTTTTAAGAGGAGGAAT,cleaved RNA product abundance,[4],0.273
ACAGACGAAGGAGCCGCAAAGAAGTTAATAAGGGATGAATAATCCCTCAATATAAAGATCTCTCACTTATTTAAA,cleaved RNA product abundance,[2],0.182
ACAGACGAAGGAGCCGCAAAGAAGTTATTAAGGGAGGAATAATCCCTAAATATAAATATCTCTCACTTATTTAAA,cleaved RNA product abundance,[2],0.404
same,cleaved RNA product abundance,[1],0.324
CGACATGTCCCGCTTCTTTCATTAATCCGTTAGCAAATGTTTTGCTATATAAATTTACCTTTTAAGAGGAGGAAT,cleaved RNA product abundance,[4],0.499
ACAGACGAAGGAGCCGCAAAGAAGTTATTAAGGGATGAACAATCCCTCACTATAAATATCTCTCACTTATTTAAA,cleaved RNA product abundance,[1],0.331
ACAGACGAAGGAGCCGCAAAAAAGTTATTAAGGGATGAATAATCCCTAAATATAAATATCTCTCACTTATTTAAA,cleaved RNA product abundance,[2],0.57
same,cleaved RNA product abundance,[1],0.765
ACAGACGAAGGAGCCGCAAAGAAGTAATTAAGGGATTAATAATCCCTCAATATAAATATCTCTCACTTATTTAAA,cleaved RNA product abundance,[1],0.379
ACAGACGAAGGAGCCGCAAGGAAGTTATTAAGGAATGAATAATCCCTCAATATAAATATCTCTCACTTATTTAAA,cleaved RNA product abundance,[1],0.115
ACAGACGAAGGAGCCGCAAAGAAGCTATTAAGGGATCAATAATCCCTCAATATAAATATCTCTCACTTATTTAAA,cleaved RNA product abundance,[1],0.425
CGACATGTCCCGCTTCTTTCATTATTCCGTTAGCAACAGTTTTGCTATATACATTTACCTTTTAAGAGGAGGAAT,cleaved RNA product abundance,[4],1.12
CGACATGTCCCGCTTCTTTCATTAATCCGTTAGCAACTATATTGCTATATACATTTACCTTTTAAGAGGAGGAAT,cleaved RNA product abundance,[4],1.45
ACAGACGAAGGAGCCGCAAAGAAGTAATTAAGGGATGAATAATCCCTCGATATAAATATCTCTCACTTATTTAAA,cleaved RNA product abundance,[2],0.102
same,cleaved RNA product abundance,[1],0.155
ACAGACGAAGGAGCCGCAAAGAAGTTATTAAGGGATGAACAATCCCACAATATAAATATCTCTCACTTATTTAAA,cleaved RNA product abundance,[1],0.364
ACAGACGAAGGAGCCGCAAAGAAGTTATTAAAGGATGAATAATCCCTCAACATAAATATCTCTCACTTATTTAAA,cleaved RNA product abundance,[1],0.265
CGACATGTCCCGCTTCTTTCATTAATCCGTTAGCAACTGTTTTGCTATATAAATTTACATTTTAAGAGGAGGAAT,cleaved RNA product abundance,[4],1.83
ACAGACGAAGGAGCCGCAAAGAAGTTATTAATGGATGAATAATCCCTCAATATAAAGATCTCTCACTTATTTAAA,cleaved RNA product abundance,[1],0.0975
CGACATGTCCCGCTTCTTTCATTATTCCGTTTGCAACTGTTTTGCTATATACATTTACCTTTTAAGAGGAGGAAT,cleaved RNA product abundance,[4],0.543
ACAGACGAAGGAGCCGCAAAGAAGTTATTAAGGGATCAATAATCCATCAATATAAATATCTCTCACTTATTTAAA,cleaved RNA product abundance,[1],0.312
CGACATGTCCCGCTTCTTTCATTAATCCGTTAGCATCTGTTTTGCTATATTCATTTACCTTTTAAGAGGAGGAAT,cleaved RNA product abundance,[4],0.31
ACAGACGAAGGAGCCGCAAAGTAGTTATTAAGGGATGAATAATCCCTCAAAATAAATATCTCTCACTTATTTAAA,cleaved RNA product abundance,[2],0.289
same,cleaved RNA product abundance,[1],0.425
same,cleaved RNA product abundance,[3],0.282
ACAGACGAAGGAGCCGCAAAGAAGTTATTAAGGGATGAATAATCCTTCAATATGAATATCTCTCACTTATTTAAA,cleaved RNA product abundance,[1],0.18
CGACATGTCCCGCTTCTTTCATTAATCCGTTAGCAACAGTTTTGCTATATACATTTACCATTTAAGAGGAGGAAT,cleaved RNA product abundance,[4],0.522
CGACATGTCCCGCTTCTTTCATTAATCCGTTAGCAACTGTTTTCCTATATACATTAACCTTTTAAGAGGAGGAAT,cleaved RNA product abundance,[4],0.43
CGACATGTCCCGCTTCTTTCATTAATCCGTTAGCAACTGTTTGGCTATATACATTTAACTTTTAAGAGGAGGAAT,cleaved RNA product abundance,[4],0.488
ACAGACGAAGGAGCCGCAAAGAAGTTAATAAGGGATGAAGAATCCCTCAATATAAATATCTCTCACTTATTTAAA,cleaved RNA product abundance,[1],0.278
ACAGACGAAGGAGCCGCAAAGAAGTTATTAAGGGATGAATAATCCCTTAATATATATATCTCTCACTTATTTAAA,cleaved RNA product abundance,[1],0.895
CGACATGTCCCGCTTCTTTCATTAATACGTTAGCAACTGTTTTGCTATATACGTTTACCTTTTAAGAGGAGGAAT,cleaved RNA product abundance,[4],0.284
ACAGACGAAGGAGCCGCAAAGAAGTTATTAAGGGAAGAATAATCCCTCCATATAAATATCTCTCACTTATTTAAA,cleaved RNA product abundance,[1],0.202
ACAGACGAAGGAGCCGCAATGAAGTTATTAAGGGATGAATAATCCCACAATATAAATATCTCTCACTTATTTAAA,cleaved RNA product abundance,[1],0.367
ACAGACGAAGGAGCCGCAAACAAGTTATTAAATGATGAATAATCCCTCAATATAAATATCTCTCACTTATTTAAA,cleaved RNA product abundance,[1],0.101
ACAGACGAAGGAGCCGCAAAGAAGTTATTAAGAGATGAATAATCCCTCAAAATAAATATCTCTCACTTATTTAAA,cleaved RNA product abundance,[2],0.101
same,cleaved RNA product abundance,[1],0.106
ACAGACGAAGGAGCCGCAAATAAGTTATTAAGGGATGAATAATCCCTCAAGATAAATATCTCTCACTTATTTAAA,cleaved RNA product abundance,[1],0.373
ACAGACGAAGGAGCCGCAAAGAAGTTATTCAGGGATTAATAATCCCTCAATATAAATATCTCTCACTTATTTAAA,cleaved RNA product abundance,[2],0.815
same,cleaved RNA product abundance,[1],1
ACAGACGAAGGAGCCGCATAGAAGTTATTAAGGGATGAATAATCCCTCACTATAAATATCTCTCACTTATTTAAA,cleaved RNA product abundance,[1],0.24
ACAGACGAAGGAGCCGCAAAGAAGTTATTAAGGGCTGAATAATCCCTCTATATAAATATCTCTCACTTATTTAAA,cleaved RNA product abundance,[1],0.255
ACAGACGAAGGAGCCGCAAAGAAGTTATTAAGGGATGAATAATCCCTCAATACAAATACCTCTCACTTATTTAAA,cleaved RNA product abundance,[1],0.0316
ACAGACGAAGGAGCCGCAATGAAGTTATTAAGGGATGAATAATCCCTCAATATGAATATCTCTCACTTATTTAAA,cleaved RNA product abundance,[1],0.141
CGACATGTCCCGCTTCTTTCATTAATACGTTACCAACTGTTTTGCTATATACATTTACCTTTTAAGAGGAGGAAT,cleaved RNA product abundance,[4],0.215
CGACATGTCCCGCTTCTTTCATTAATCCGTTACCAACTGTTTTGCTATATACATTTAACTTTTAAGAGGAGGAAT,cleaved RNA product abundance,[4],0.282
ACAGACGAAGGAGACGCAAAGAAGTTATTAAGGGATGAATAATCCCTCAATATAAATATCTCTCACTTATTTAAA,cleaved RNA product abundance,[3],1.03
ACAGACGAAGGAGCCGCAAAGAAGTTATTAAGAGATGAATAATCTCTCAATATAAATATCTCTCACTTATTTAAA,cleaved RNA product abundance,[2],0.718
same,cleaved RNA product abundance,[1],0.924
ACAGACGAAGGAGCCGCAAAACAGTTATTAAGGGATGAATAATCCCTCAATATAAATATCTCTCACTTATTTAAA,cleaved RNA product abundance,[2],0.865
same,cleaved RNA product abundance,[1],0.897
ACAGACGAAGGAGCCGCAAAGAAGTTATTAAGGGATGAATAATTCCTCAATTTAAATATCTCTCACTTATTTAAA,cleaved RNA product abundance,[2],0.0889
same,cleaved RNA product abundance,[1],0.0634
ACAGACGAAGGAGCCGCAAAGAAGTTATTAAGGGATGAATAATCCCTCTCTATAAATATCTCTCACTTATTTAAA,cleaved RNA product abundance,[1],0.372
CGACATGTCCCGCTTCTTTCATTACTCCGTTAGCAGCTGTTTTGCTATATACATTTACCTTTTAAGAGGAGGAAT,cleaved RNA product abundance,[4],0.827
ACAGACGAAGGAGCCGCAAAGAAGTTATTTAGGGATGAATAATCCCTTAATATAAATATCTCTCACTTATTTAAA,cleaved RNA product abundance,[1],1.39
ACAGACGAAGGAGCCGCAAAGAAGTTACTAAGGGATCAATAATCCCTCAATATAAATATCTCTCACTTATTTAAA,cleaved RNA product abundance,[1],0.208
ACAGACGAAGGAGCCGCAAAGAAGTTATTAAGGGATAAATAATCCCTCAATATAAATAGCTCTCACTTATTTAAA,cleaved RNA product abundance,[1],0.553
CGACATGTCCCGCTTCTTTCATTAATCCGTTATCAACAGTTTTGCTATATACATTTACCTTTTAAGAGGAGGAAT,cleaved RNA product abundance,[4],0.296
ACAGACGAAGGAGCCGCAAAGATGTTATTAAGGGGTGAATAATCCCTCAATATAAATATCTCTCACTTATTTAAA,cleaved RNA product abundance,[2],0.656
CGACATGTCCCGCTTCTTTCATTAATCCGTTAGCAACTGTTTTAAAATATACATTTACCTTTTAAGAGGAGGAAT,cleaved RNA product abundance,[4],0.571
CGACATGTCCCGCTTCTTTCATTAATCCGTTAGCAACCGTTTTGCTAAATACATTTACCTTTTAAGAGGAGGAAT,cleaved RNA product abundance,[4],0.432
ACAGACGAAGGAGCCGCAAACAAGTTATTAAGGGATGAATAATACCTCAATATAAATATCTCTCACTTATTTAAA,cleaved RNA product abundance,[2],0.107
same,cleaved RNA product abundance,[1],0.12
ACAGACGAAGGAGCCGCAAAAAAGTTATTAAGGGATGAAAAATCCCTCAATATAAATATCTCTCACTTATTTAAA,cleaved RNA product abundance,[2],0.785
same,cleaved RNA product abundance,[1],0.695
CGACATGTCCCGCTTCTTTCATTAATCCGTTACCAACTGTTTTGCTATATAGATTTACCTTTTAAGAGGAGGAAT,cleaved RNA product abundance,[4],0.226
